# Results taken from the supplement of paper PMC7877785.
# ± gives the uncertainty stated by the source.
# Test: self-splicing fitness, log relative to wild type (ln ratio); higher = more splicing; Tetrahymena group I intron in knt gene, E. coli kanamycin selection, DiMSum; sequences stand for … in CUCUCU…GGAGGGAAAAGUUAUCAGGCAUGCACCUGGUAGCUAGUCUUUAAACCAAUAGAUUGCAUCGGUUUAAAAGGCAAGACCGUCAAAUUGCGGGAAAGGGGUCAACAGCCGUUCAGUACCAAGUCUCAGGGGAAACUUUGAGAUGGCCUUGCAAAGGGUAUGGUAAUAAGCUGACGGACAUGGUCCUAACCACGCAGCCAAGUCCUAAGUCAACAGAUCUUCUGUUGAUAUGGAUGCAGUUCACAGACUAAAUGUCGGUCGGGGAAGAUGUAUUCUUCUCAUAAGAUAUAGUCGGACCUCUCCUUAAUGGGAGCUAGCGGAUGAAGUGAUGCAACACUGGAGCCGCUGGGAACUAAUUUGUAUGCGAAAGUAUAUUGAUUAGUUUUGGAGUACUCGUGGUCG
# Outline: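 Pooled colonies went to amplicon sequencing on an Illumina HiSeq 2500 after six replicate transformations. The plates were LB agar with 100 μg/mL carbenicillin, 50 μM IPTG and 0.2% rhamnose, with or without 25 μg/mL kanamycin, incubated overnight at 37°C or 30°C. The E. coli BL21(DE3) library had all eight P1ex-region intron nucleotides randomised, the intron placed in the knt kanamycin-resistance gene on pET-22b(+). DiMSum fitness is the error-weighted combination of replicate fold changes, kanamycin against none, normalised to wild type.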
Sequence,self-splicing fitness (ln) (30 °C),self-splicing fitness (ln) (37 °C)
CUACAGCAAUAUUACGUUGU,-3.66 ± 0.14,-3.95 ± 0.21
CCGCAGCAAUAUUACGGUGA,-2.46 ± 0.084,-0.784 ± 0.075
CCGAAGCAAUAUUACGCAAA,–,-2.17 ± 0.38
AAAUAGCAAUAUUACGACAU,-0.145 ± 0.012,0.051 ± 0.032
CUAAAGCAAUAUUACGAUAG,0.0858 ± 0.072,0.313 ± 0.085
AUAAAGCAAUAUUACGGAUG,-1.69 ± 0.072,-0.844 ± 0.11
UAGAAGCAAUAUUACGAAAA,-2.69 ± 0.2,-2.02 ± 0.17
CUUGAGCAAUAUUACGGUUU,-2.68 ± 0.16,-2.66 ± 0.29
UGUUAGCAAUAUUACGAACA,-1.08 ± 0.2,-1.15 ± 0.32
GAUGAGCAAUAUUACGCGAC,-1.69 ± 0.17,-0.921 ± 0.15
UCUUAGCAAUAUUACGCUUC,-4.09 ± 0.35,-2.41 ± 0.19
GUAAAGCAAUAUUACGCAUG,-1.15 ± 0.077,-0.761 ± 0.1
UAAAAGCAAUAUUACGGCGC,-1.64 ± 0.12,-0.483 ± 0.13
UCUUAGCAAUAUUACGGAAG,–,-1.81 ± 0.41
AAAAAGCAAUAUUACGGGGG,-3.27 ± 0.17,-2.76 ± 0.18
ACCUAGCAAUAUUACGGUCC,-2.82 ± 0.15,-2 ± 0.15
GUAAAGCAAUAUUACGCAGC,-2.42 ± 0.22,-1.25 ± 0.2
GAAAAGCAAUAUUACGAUUA,-0.531 ± 0.07,-0.0202 ± 0.076
CCCCAGCAAUAUUACGCACA,-3.56 ± 0.21,-3.66 ± 0.29
UUAGAGCAAUAUUACGUACU,-3.2 ± 0.34,-1.81 ± 0.31
CGGUAGCAAUAUUACGAGUG,-0.671 ± 0.098,0.142 ± 0.17
AGAAAGCAAUAUUACGGGCG,-0.886 ± 0.1,-0.328 ± 0.12
GCUGAGCAAUAUUACGUAUG,-3.21 ± 0.16,-2.61 ± 0.33
CCAGAGCAAUAUUACGUAGA,-1.88 ± 0.12,-2.08 ± 0.23
CUGAAGCAAUAUUACGGUGA,-4.38 ± 0.31,-2.6 ± 0.21
CUUGAGCAAUAUUACGCGAG,-3.64 ± 0.16,-2.82 ± 0.23

Sequence,self-splicing fitness (ln) (30 °C),self-splicing fitness (ln) (37 °C)
CUCGAGCAAUAUUACGCAGA,-2.04 ± 0.35,-0.967 ± 0.17
CUCCAGCAAUAUUACGGAGU,-4.09 ± 0.31,-1.28 ± 0.19
CAGGAGCAAUAUUACGGAAC,-3.67 ± 0.43,–
GAUCAGCAAUAUUACGGACA,-0.118 ± 0.089,0.127 ± 0.11
UUACAGCAAUAUUACGCUAU,-3.74 ± 0.25,-2.33 ± 0.21
UCCCAGCAAUAUUACGCGAC,-4.31 ± 0.29,-3.36 ± 0.31
CAUUAGCAAUAUUACGUGAC,-3.18 ± 0.26,-1.58 ± 0.33
AAUCAGCAAUAUUACGAUUC,-2.99 ± 0.2,-3.73 ± 0.39
UUGGAGCAAUAUUACGCGGU,-2.83 ± 0.26,-2.14 ± 0.38
AACCAGCAAUAUUACGAGGC,-3.43 ± 0.23,-2.2 ± 0.18
UCCUAGCAAUAUUACGGUUG,-4.08 ± 0.22,-1.81 ± 0.14
CCGGAGCAAUAUUACGCACC,-1.27 ± 0.38,–
AGCUAGCAAUAUUACGAAAG,-3.5 ± 0.19,-2.77 ± 0.25
GCGCAGCAAUAUUACGCCGC,-2.28 ± 0.35,-1.44 ± 0.49
UAAUAGCAAUAUUACGCUAG,-2.46 ± 0.12,-0.773 ± 0.14
UGCCAGCAAUAUUACGUUUA,-2.56 ± 0.086,-1.51 ± 0.072
UCCCAGCAAUAUUACGGAGA,-1.18 ± 0.084,-0.484 ± 0.11
GCCUAGCAAUAUUACGACGC,-0.302 ± 0.091,0.255 ± 0.11
ACAGAGCAAUAUUACGUGCC,-3.54 ± 0.46,–
UCCUAGCAAUAUUACGAAUA,-2.81 ± 0.26,-1.98 ± 0.34
CUAGAGCAAUAUUACGCCUU,-3.42 ± 0.19,-0.994 ± 0.24
GCAGAGCAAUAUUACGCUUC,-3.9 ± 0.27,-2.22 ± 0.2
CCCUAGCAAUAUUACGAUCU,-3.92 ± 0.28,-2.74 ± 0.24
GCCAAGCAAUAUUACGCUAG,-3.06 ± 0.15,-2.25 ± 0.17
CUACAGCAAUAUUACGGUUG,-1.78 ± 0.078,-1.73 ± 0.091
UUUAAGCAAUAUUACGCGUC,-1.9 ± 0.18,-1.77 ± 0.25

Sequence,self-splicing fitness (ln) (30 °C),self-splicing fitness (ln) (37 °C)
CGAGAGCAAUAUUACGGGAU,-2.56 ± 0.13,-2.53 ± 0.23
UCCUAGCAAUAUUACGGUUC,-3.05 ± 0.2,-1.55 ± 0.17
AACUAGCAAUAUUACGACAU,-0.187 ± 0.011,0.0705 ± 0.032
CAAUAGCAAUAUUACGCGUA,-2.09 ± 0.18,-1.85 ± 0.23
UAUCAGCAAUAUUACGCCAG,-0.548 ± 0.15,-0.584 ± 0.18
GACAAGCAAUAUUACGGCUC,-0.105 ± 0.07,0.0794 ± 0.1
GCGGAGCAAUAUUACGGCGG,-3.3 ± 0.3,-2.6 ± 0.32
GAGUAGCAAUAUUACGUGGC,-2.33 ± 0.15,-2.03 ± 0.28
CAACAGCAAUAUUACGAGUG,-1.59 ± 0.051,-0.292 ± 0.071
CUUCAGCAAUAUUACGUUCC,-2.64 ± 0.43,-1.71 ± 0.36
ACGGAGCAAUAUUACGUGGU,-3.91 ± 0.4,-1.08 ± 0.2
UGCGAGCAAUAUUACGUUAA,-2.48 ± 0.29,-2.45 ± 0.31
UAGUAGCAAUAUUACGGGAC,-4.2 ± 0.42,-2.27 ± 0.43
UGAAAGCAAUAUUACGUUUG,-2.94 ± 0.13,-0.682 ± 0.11
CCGAAGCAAUAUUACGAGAG,-3.28 ± 0.22,-1.53 ± 0.19
CGGAAGCAAUAUUACGCCUU,-3.2 ± 0.17,-3.48 ± 0.3
UGUCAGCAAUAUUACGCGAA,-0.455 ± 0.069,0.0551 ± 0.085
UUCGAGCAAUAUUACGCGAC,-3.69 ± 0.32,-1.18 ± 0.19
GCAAAGCAAUAUUACGCCGA,-2.04 ± 0.31,-1.82 ± 0.21
CGAAAGCAAUAUUACGCAUU,-4.46 ± 0.42,-2.94 ± 0.37
ACCUAGCAAUAUUACGAUCU,-0.35 ± 0.079,0.0427 ± 0.1
CACAAGCAAUAUUACGUAUC,-4.88 ± 0.25,-2.19 ± 0.15
UAUAAGCAAUAUUACGCGUA,-1.84 ± 0.2,-0.627 ± 0.17
AGACAGCAAUAUUACGGCUU,-0.243 ± 0.094,0.564 ± 0.14
